From the DeepSol protein solubility set

Experiment: soluble on expression in E. coli; label from the status in PepcDB or PDB records

Soluble on expression in E. coli, not soluble:
MGSDKIHHHHHHKRQVSGDESYLDAAPLAELHAPAGMILPITTGDYVIPVTKGSGAVGKALDIRPPAQPLALVSGARTQFSGDTATLLVENGRSSTLWPQVVSVIQAKNYPIEKRDDASQTLTTDWVNWNRLDEDEQYRGRYQISVKPQGYQQAVTVKLVNLEQAGKPVADAASLQRYSTEMMNVISAGLDKTATDAANAAQNRSAATMDVQSAADDTGLPMLVVRGPFNLVWQRLPAALEKVGMKVTDSTRSQGSMAVTYKPLSDSDWRDLGASDPGLASGDYKLQVGDLDNRSSLQFIDPKGHTLTQSQNDALVAVFQAAFNK, MGSDKIHHHHHHKSISNKLVVFDDKEQVIQYSSNSIPVKIELYSKRWGKTSITYNNSLKEFWDIVESMPRSKNFYGSTKIENSPNDIIGTIFYLNGKRSTMCLNHNLKIDDSYYGGERGYAYINRLRNYINDIMCTPSMLASIVNDKNKVIIEDKLSEASKCGSNDKTLIKNEITKLRRISNNEKLQKTITSKGKLNYHIKIYMENSNGSNINLSKIKQDNYDIISISVYENNCAVIRDYGNDTVDTFCMEGNLTNVCKSILKR, MGSDKIHHHHHHLCRKDASQPSMYDLHRLGWNSFQQLCLTIAREVLAQSVKSFLDSNDGGRDGAFCGTWTPTKNETMSGSFVIQCKFTSKPNALLAKEDIAAELPKIRRLTEKGLCDVYVLMTNAGVSGKQEERIAAELTSAGAKNVLILGGTWITDQIRENTRLRTLVPRVYGLGDLSQILDERAYEQARAVLDSLREDLAKVVMTSAYRNAVDALDRHGFVLLIGEPAAGKTTIASMLAMASADKWKSSVLRKR, MGSDKIHHHHHHLFDRYEAGETAVLVHIDFSDDERREDLVELQLLVESAGARSVGVITGSRRAPDRKFFVGTGKAEELAAMVAATEAKVVIFNHALSPAQERNLERVCHCRVLDRTTLILDIFAQRARTHEGKLQVELAQLRHMSTRLIRGWTHLERQKGGIGMRGPGETQLETDRRLLRGRIKNINRRLDKVDKQREQSRRSRKRSDLATVSLVGYTNAGKSTLFNGLTSSDVYAADQLFATLDPTLRKLDLPDGAVILADTVGFIRHLPHDLVAAFKATLQETRQAELLLHIVDCADDNMQDNFDQVQDVLKEIDADEIPQLVVCNKIDLLEDFAPRIDYAEDGTPERVWLSAQKGQGFDLLLQAITELVGNIVLELTLKVPATGGHYIGQMYKLDVIEHKDYDDLGNCIVKIRLLDADWRRMIKQSQGELETFVFEASETDVIL, MGSDKIHHHHHHLFDRYEAGETAVLVHIDFTDEGSREDLAELQLLVESAGARSVGVITGSRRAPDRKFFVGTGKAEELAAMVAATDANVVIFNHALSPAQERNLEHLCRCRVLDRTTLILDIFAQRARTHEGKLQVELAQLRHMSTRLVRGWTHLERQKGGIGLRGPGETQLETDRRLLRGRIKNINRRLEKVDKQREQSRRARQRSDMAAVSLVGYTNAGKSTLFNTLTSAEVYAADQLFATLDPTLRKLELPDGAAILADTVGFIRHLPHDLVAAFKATLQETREADLLLHVIDCADEKMRDNIEQVQAVLKEIDADEIPQLIVCNKIDLVEGIKPAIDRDDTGKPFRVWLSAQQNQGLDLLRQAVQELVGNVIAELTLKIPATAGHYLGQFYRLDAIQQKEYDDLGNCILSVRLPDADWRRLAKQSQGELETFIVDTATDRVVC, MGSDKIHHHHHHLNILVTNDDGIMSPGIILLAEALSEDHEVLVVAPDVERSATGHAITIRTPLWAKEVKVGNKNIGYAINGTPADCVKLGLLAISDRKIDLVISGVNKGQNMGIDVLYSGTVSGALEGAVTDTPSIAVSSSDWSNPEYETAARFMVNFLKIYDVSKMPDFTALNINVPSIKYEELKGWKVTRQSRRRYKDYFEKRKDPYGNNYYWIFGEVVEDECSTDCDFNAVKSNFVSITPLHAIMTDKKYFDELKEISEGWSE, MGSDKIHHHHHHLNQERFDYRTGILASPSEVDAAEWNALLAQQPQPTPFLRHEFLSALHATRCAVADTGWAPQFVTLTDPRTDKLVAAAPVYLKGHSYGEYVFDWAWADAYKRNGLPYYPKLLCAVPFTPVQGNRLLSADTHALRHLAATLMAFAEQADVSSLHVLFPTETEANALTEMGMMQREGVQFHWLNDGYRDFDDFLSTLEQKKRKNIRAERRKVHEAGVTMRRIRGEDIQDADWRFFSKCYRQTYREHFSSPYLNLDFFRMIGESMPENLLLVIAEYEGKPIASSLVVYQRDAKTGGTLYGRYWGALEHVPCLHFETAYYQPLEFCIEEKLGAFEGGAQGEHKMARGFLPTVTRSAHWLAHPAFADAVGHFLDNEKNSIHAYVDELREHNPFKG, MGSDKIHHHHHHLNVYHASLEEAQADPRLKGLQGASPFERLDWLALLANECLDPARARLSVVTSGECMAALPWIEREGRIDALANWYSFFVSPLGDSALLSRIVEALPHGRAAFAPLPEEDARLLARAFRNAGWCTLAAPCDVNHVLPVEGRSFAQYWAERPGALRETVRRKSRKGEVSLRILTEFSPEDWEAYETIYRLSWKPGEGSPAFLRKWAEADGEAGRLRLGIAEIDGAAVAAQFWTVEGGTAYIHKLAHDERFRKSSPGTLLTAAMFEHVIDRDRVDLIDFGTGDDPYKRDWMDDVRSRWSVQAWRPGAVRHWPSLALALARTLAGQIMRPLVSRNGDG, MGSDKIHHHHHHLPENAASLGCGAWKGDTVSIEAGGMNRRVGEIVGQVLARLRPKAKSLIITVYGDAISHHGGSAWLGSVINLVEPLGLNERIVRTSVFRLSKEAWLSSMQIGRRSYYRLTEMGRRRFEAAHNRIYHYNGKPWDGRWTLAVTNIDGMDAERRDSLRRDLGWLGFGQLASGVMVHPDPDQSAVRQALAEAGVQDRAVMMTAAAEDWVTPEALRDLIHTCWDLERLASDYNEFLDTFRPLWQVLSGNGDLDPQMCFVVRTLLMHGYRRALLRDPMLPDELLPANWPGTSARVLCRNLYRLVQAAAETHVMGMLETAEGPVPEAHPAYYTRFGGLQSAD, MGSDKIHHHHHHLPNLQEIFKKDNFIAWDDKVYPSILNFGAPLPKPLPRIAPNNAPLARLFIEFLYYYSMFNFKENYIGARPVMVMDRRTSQNNMVRSSTNKEVCIQDPFDEHNPGRTVRTLNRIKDVMRSTYQKFLPVEGSEFTFPTLDDIINMSPEVPKPSRAEVRNFRAEATEVNRVGLGVYCRNSFV, MGSDKIHHHHHHLRFIIVSGPPSAGKTAVMIHAIRHLLKDGIKVAACKIDCLKTSDDKNYRALGIPVAVGLSEYLCPDHFFVANLEEIYAWGSYYGTEVLILETAGLCHRCAPAIQGCLSICVIDNLSGIDTPQKVGPMLSTADVVLISKGDVVSQAEREVFRQRVEMVNPDAAVLSVNGLNGQGSLKLKKIIMESASVKRIEGQELRCSMPAAICSYCTGETMIGSSYQMGNVKKLDFGKF, MGSDKIHHHHHHLTNLLVIGATGNIGQPLIRDLQDDPDVHLFAGVHNSEHAKQALNGLKVQVRRFDFLDPATFEQALADIDKVFFVRPPQLAKPKEDMYPFLDALVARHVKQVVFVSLLGVAHNPMTPHHQIEKRIVELGLPYTFIRPSFFMQNLNTTHQADIVGHRDLFVPAGHARTSFIDTRDIGATAAVILRDPAYIGQKLDITGAQALTYADAAQIMTMELGVPITYSKPSLWRFRKVMLQRGLPKNYVNVMVMLYLITQLGNAKTVTTTLPNVLGRPAISFEQYVHDYRAEFLPKPLS, MGSDKIHHHHHHLTQLAQCSTSSISQSSIYLPYRDGQLHLRQLLPSAPDFSKTPILMLHGAMSNGRVFYSQSGRGLGCFLAKAGFVVYVLDTAGRGLSLPKIDRDSTLGQGEVIREQLPLVQQTILDLHQKACQEQTAQYDRKAVAPSQVHWCAHSWGGVLMASSLARYPELQQSVRSLLTFGSKRTIRVKSFKKWLMVDVFWNRLAPGLAMGQGYLAADKLRIGMDNESRASLVQSIDWVQGDWIDHDDGFDYAKAAKRADWPPAWFISGLNDTVLGHPEDVADMVEECGFKRVKSTLLSKENGFKHDYGHADMLTHLDATSDHFPKISDWYLSFDLAVLNG, MGSDKIHHHHHHLYVPLLIRQQYIRSGPDYRFSEPVSFLDIKQTFGFSHVRVGRWVTREESRIAANLVFDSLADLAFILKLPPLTLGLRQTLSLAFGHGGQKGVQAHYAPATRELALAKNAGAGALAHEFWHAFDHYIAPKAFNLSEGHFLCASDLWLADSPLIKHPLNLRLSEIFKVTLLSPDGKEPSDYVRRALALDKRYGTRYFSQPTEMMARAFEACIESYRDISNPYLVSGTSFSAMAKEGAYPDELHRQRIFTALLDYFEPLGIALAK, MGSDKIHHHHHHMAATLKLSQLISALSYALDITEGQPEGHCVRSCWIGMHIGRALGLAPQELWDLYYAILLKDLGCSSNAARICELYRTDDRSFKQDFKQVGASLPQMLGFVFSHTGTHAAGWRERAASVVQVLRRGKEMADELINTRCHRGADIARQLRFNENVANGIQYLDEHWDGSGRPLGLQRDAIPLNARIALLAQVIDVFHVTHGRHAALDEAVRRGGGWFDPELVAAFRGASRDTAFWQRLESDDIERAVLALEPAQCTVPLDEDYMDEIAEGFGQVVDSKSPFTAGHSQRVGHYADRIGEELGLSPQRRRWLKRGALLHDVGKLGVSNTILDKPGKLTPEEWEAVKLHASHTETILGRIESFAELAKVAGAHHERLDGKGYPRGLMASEIALETRVITTADIFDAIHAARPYHPENPVPETLDIMRKNLGSALDPACFEALEAVLREEDALESDAICLT, MGSDKIHHHHHHMADKKRLDQLVLERGLVESREKAKVLILAGKVLVNGERVTKASKLVPEDANVELLEEPKYVSRGGYKLESAFESFKIDVSGKVACDIGASTGGFTDFLLQRGAKKVYAVDVGYGQLHWKLRNDPRVVVMEKVNARYLNPDDLGEKVDVVTCDVSFISLKKIIPAISRILKNIGDAVLLVKPQFEAPRKFVKKGIVKDPGVHLEVLEEIRKSLIENGFVVKGCCFSKIKGTEGNIEYFFWVKKEGENAEIDLRKIVEEAWRFFGERER, MGSDKIHHHHHHMADRIEFVKNYSDLSTNKGFQFEFYCDRCGSGYRTRFKPSITGTVTGVLDTAGSLLGGLFSSAADVSERVRSASWEKSHDDAFEDACNELKPDFIQCPRCSSWVCRQKCWNKKKGLCKECAPDLGVEMAAAQASKSVEEIWAHAAMAEEDKKLGLENWRENVRASCPECEAPLASNAKFCPECGAKLKAAQFCPSCGAKVNPGSKFCAECGEKF, MGSDKIHHHHHHMAEFFPEIPKIQFEGKESTNPLAFRFYDPNEVIDGKPLKDHLKFSVAFWHTFVNEGRDPFGDPTAERPWNRFSDPMDKAFARVDALFEFCEKLNIEYFCFHDRDIAPEGKTLRETNKILDKVVERIKERMKDSNVKLLWGTANLFSHPRYMHGAATTCSADVFAYAAAQVKKALEITKELGGEGYVFWGGREGYETLLNTDLGLELENLARFLRMAVEYAKKIGFTGQFLIEPKPKEPTKHQYDFDVATAYAFLKNHGLDEYFKFNIEANHATLAGHTFQHELRMARILGKLGSIDANQGDLLLGWDTDQFPTNIYDTTLAMYEVIKAGGFTKGGLNFDAKVRRASYKVEDLFIGHIAGMDTFALGFKIAYKLAKDGVFDKFIEEKYRSFKEGIGKEIVEGKTDFEKLEEYIIDKEDIELPSGKQEYLESLLNSYIVKTIAELR
